experiment: soluble on expression in E. coli; label from the status in PepcDB or PDB records

Row | Sequence | soluble on expression in E. coli
1 | MPSSKTSARRAPSSPGASLWSLPLIRKLCCAPGCEELAPAGQAHCADHAAEAEARARSRKARAKAGAAAQAGAAFYATGRWRRARARFLAAHPLCADCAGLGLVVAAAEVDHIRPHRGDPGLMWDRANWQPLCRPCHSRKTAREVFHPPGGIAKSEGSARLEHHHHHH | not soluble
2 | MSLSGKENPNICFLPTATGDADEVIERFYNAKLSENVTHFPLFKFDAGWKETLFEQDIIYVGGGNTRSMLAIWREWGIDRILKQCYEQGIIICGMSAGAICWFEFAVTDSDPEAYQVMRCLGLIDGLAAAHFSHVGEKFEVFQAFARSQPSITCYGIHDYAALHFVDGKLLATVTSFPDAGVLVKTGNDENILRGEGHHHHHH | not soluble
3 | MAADYDKLFRPHEGMEAPDDMAAQPFFDPSASFPPAPASANLPKPNGQTPPPTSDDLSERFVSAPPPPPPPPPPPPPTPMPIAAGEPPSPEPAASKPPTPPMPIAGPEPAPPKPPTPPMPIAGPEPAPPKPPTPPMPIAGPAPTPTESQLAPPRPPTPQTPTGAPQQPESPAPHVPSHGPHQPRRTAPAPPWAKMPIGEPPPAPSRPSASPAEPPTRPAPQHSRRARRGHRYRTDTERNVGKVATGPSIQARLRAEEASGAQLAPGTEPSPAPLGQPRSYLAPPTRPAPTEPPPSPSPQRNSGRRAERRVHPDLAAQHAAAQPDSITAATTGGRRRKRAAPDLDATQKSLRPAAKGPKVKKVKPQKPKATKPPKVVSQRGWRHWVHALTRINLGLSPDEKYELDLHARVRRNPRGSYQIAVVGLKGGAGKTTLTAALGSTLAQVRADRILALDADPGAGNLADRVGRQSGATIADVLAEKELSHYNDIRAHTSVNAVNLEVLPAPEYSSAQRALSDADWHFIADPASRFYNLVLADCGAGFFDPLTRGVLSTVSGVVVVASVSIDGAQQASVALDWLRNNGYQDLASRACVVINHIMPGEPNVAVKDLVRHFEQQVQPGRVVVMPWDRHIAAGTEISLDLLDPIYKRKVLELAAALSDDFERAGRR | soluble
4 | AIAPSDLAKKKAAKKKEAAKARGRTRKPEDGVNGDAEKPEIQENGAAEVNGVDSLAKELDEFELKKTEARAVTGVLASHPNSTDVHISSLSLTFHGQELLSDTSLELNSGRRYGLIGLNGTGKSMLLSAISHREVPIPEHIDIYHLTREMAPSEKTALQCVMEVDEERIKLEKEAERLAHEDSECEKLMELYERLEELDADKASMRASRILHGLGFTTSMQQKKLKDFSGGWRMRVALARALFLKPFMLLLDEPTNHLDLDACVWLEEELSQFKRILVLISHSQDFLNGVCTNIIHLHQRKLKYYTGNYDQYVKTREELEENQMKRFNWEQDQIAHMKNYIARFGHGSAKLARQAQSKEKTLQKMVASGLTERVVNDKTLSFYFPPCGKIPPPVIMVQNVSFRYSENTPYIYKNLEFGIDLDTRVALVGPNGAGKSTLLKLLTGELLPSDGMIRKHSHVKIGRYHQHLTEQLELDLSPLEYMMKCYPEIKEKEEMKKIIGRYGLTGKQQVSPIRNLSDGQKCRVCFAWLAWQNPHMLFLDEPTNHLDIETIDALAEAINDFEGGMMLVSHDFRLIQQVAQEIWVCEKQTITKWSRDILAYKEHLKSKIDKQMHDL | soluble
5 | MELQEVLHMNGGEGDTSYAKNSSYNLFLIRVKPVLEQCIQELLRANLPNINKCFKVGDLGCASGPNTFSTVRDIVQSIDKVGQEKKNELERPTIQIFLNDLFQNDFNSVFKLLPSFYRNLEKENGRKIGSCLIGAMPGSFYSRLFPEESMHFLHSCYCLHWLSQVPSGLVTELGISVNKGCIYSSKASRPPIQKAYLDQFTKDFTTFLRIHSEELISRGRMLLTFICKEDEFDHPNSMDLLEMSINDLVIEGHLEEEKLDSFNVPIYAPSTEEVKRIVEEEGSFEILYLETFNAPYDAGFSIDDDYQGRSHSPVSCDEHARAAHVASVVRSIYEPILASHFGEAILPDLSHRIAKNAAKVLRSGKGFYDSVIISLAKKPEKADM | soluble
6 | MFHGKHPGGLSERGRALLLEGGKALGLDLKPHLEAFSRLYALLQEASGKVNLTALRGEEEVVVKHFLDSLTLLRLPLWQGPLRVLDLGTGAGFPGLPLKIVRPELELVLVDATRKKVAFVERAIEVLGLKGARALWGRAEVLAREAGHREAYARAVARAVAPLCVLSELLLPFLEVGGAAVAMKGPRVEEELAPLPPALERLGGRLGEVLALQLPLSGEARHLVVLEKAALTSLAYPRRPGVPERHPLC | soluble
7 | MGITDGVVVDLGGGTTGISILEKGKVIFVADEPTGGTHMTLVLAGSYGIDFETAEDIKTDKKKEKEVFVQITPVLQKMAAIVKKYIKDYKVKDVFLVGGACSFDGSESIFERELGLNIYKPYMPVLEHHHHHH | not soluble
8 | MSLKYGHVAWIQQILDGSYADAMNTLKNITVDDSKKGESLSECELHLNVAKLSSLLVEKDNLDINTLRKIQYNLDTIDAEKNISNKLKKGEVQICKRFKNGSIREVFNILVEELKSTTVVNLSDLVELYSMLDDEESLFIPLRLLSVDGNLLNFEVKKFLNALVWRRIVLLNASNEGDKLLQHIVKRVFDEELPKNNDFPLPSVDLLCDKSLLTPEYISETYGRFPIDQNAIREEIYEEISQVETLNSEGHHHHHH | not soluble
9 | MKLSKDTIAILKNFASINSGILLSQGKFIMTRAVNGTTYAEANISDEIDFDVALYDLNSFLSILSLVSDDAEISMHTDGNIKIADTRSTVYWPAADKSTIVFPNKPIQFPVASVITEIKAEDLQQLLRVSRGLQIDTIAITNKDGKIVINGYNKVEDSGLTRPKYSLTLTDYDGSNNFNFVINMANMKIQPGNYKVMLWGAGDKVAAKFESSQVSYVIAMEADSTHDF | soluble
10 | MGSDKIHHHHHHMEAKKSKAIVFSGVNQIELREVTLKPVSSTDVLVETWWSSISTGTEKMALNGLIPSPPFIFPFIPGYETVGRIVEAGDHVNQGLIGKFAYVAGSFGYEDVNAAFGGASQFIVCPVESLTVLDGIANPQCGIALPLGATALHIVDLAEVKNRKVLVLGQGAVGILAAELAKRFGASLVAVTEPHQRRLDISTSDIKVNPEKQDVSVALAGHEFDVLIDSTGIMSAIETGLRFLKFHGKVIFGGYYQRMNIDYSQAFNKELSFIAARQWAKGDLHRVRELIAAGKINAEKIFTHQCTVDDNLMEAYMQAFSDSDCLKMIIHWKHGNEAGEHFPTCNTAN | not soluble
11 | MEKASSPEKWLAKVSVTLTKAKPDEIWPLFTDFFNLHKWLPTLATCHGVHGNNGEQGCIRFCSGFSIGSNGVDSAARWSKEKLVAVNPVERVMRYEIVESNTGFESYVSTVKILPRGEDGCVIEWSFTVDPVRGLSLENLVKKYEKALEIITKNMEEDALRRRESSS | soluble
12 | MREEKGMDQKVYDAYLSILKAELVPALGCTEPITIAYASAIARECLGAFPDVIQIKASGNIIKNVKSVVVPGTNGMKGIEAAVAAGLVGGKSEKKLEVISEVTEEEKEQIRDLVEKEIIEVGIAGSDLLLDVQVQLKKGDDSVFVRIANAHTNVVLVEKNGVRLFEKAMDCGGDDAGLSQEKKLLSVEGILEFADQVKLEDIEDVISRQIAYNTAIADEGLAHNYGANIGKVLLQAYGDQDVRVRAKARAAAGSDARMSGCELPVIINSGSGNQGITASVPVIEYAKELKCGEEKMYRALVLSNLIAIHQKTGIGPLSAYCGAVSAGCASGAAIAYLNGGDLRTISHTIVNCLAIASGIVCDGAKASCAAKIGMSVEAGLLGYLMIEQDQQFRAGDGIVKKGVEETIRSVGRLGKDGMRETDREILEIMIGK | not soluble
13 | MASSGYLYSLVAEDGVWQAFVSKAKLSRERAVALHKALRELTALLAIADRGRLQKGLKGREKFLKVFPRLKAELVEHISQLHALADHAEKLHRGCTISNVVADSFSAASDILSLLGLFLAPVTAEGSLVLSATGLGLGVAATVTDVATSIVEETSRVLDEVEAAPTGTHVLGEAGTSVDRIASKVPQATRDITRDLEALEQHMNALRLVRANPRLEEDARILATTGSISAQRAMQVRASLKGTPLAMSNEARIQRATAAGAALWSDVDSLVKESKHLYEGSASESAEALRKLARELEEKLEGLMEFYKTI | soluble
14 | MGSDKIHHHHHHQEGRSDPLEGFNRTMFNFNYDVLDPYVVRPAAVAWRDYVPTPARNGLGNFFNNLEEPATMVNYFVEGKPYKAMIHFNRFFLNTLLGMGGLIDVASMANPKLAKEESRRFGSTLGNYGVGYGPYVVLPGYGSVTPREDGGGVADTLYPMLSYLTFWMSAGKWAIEGLETRAQLLDSDGLLRNSSDPYLMIREAYFQRHDFLASDGQIAPQQNPNAAAIEDSLDEIDSAK | not soluble
15 | MANKLTILASVVAASTAMMATSAQAADTTLDKVTKQGFLTCGVSTGLPGFSNPNSKGEWEGIDVEYCQALAAAVLGDKTKVKYVPLTAKERFTALQSGEIDVLSRNTTWTLHRDTALGLNFVGVNYYDGQGFMVKKDLGISSAKELDGASVCVQSGTTTELNLADYFRNSGMSYKPVVFDTAAQTSKGFDAGRCDVLTTDQSGLYALRLNLKDPSSAAVLPEIISKEPLGPVVRQGDDQWFNIAKWTLAAMVNAEEYGITSKNADEMLKSQDPNIKRILGVDGPKGKGLGIRDDWGYQVVKQVGNYGESFERTVGKGSPLEIARGVNALWNAGGFMYAPPIR | not soluble
16 | GHMSSTPSNQNIIPIIKKESIVSLFEKGIRQDGRKLTDYRPLSITLDYAKKADGSALVKLGTTMVLAGTKLEIDKPYEDTPNQGNLIVNVELLPLAYETFEPGPPDENAIELARVVDRSLRDSKALDLTKLVIEPGKSVWTVWLDVYVLDYGGNVLDACTLASVAALYNTKVYKVEQHSNGISVNKNEVVGKLPLNYPVVTISVAKVDKYLVVDPDLDEESIMDAKISFSYTPDLKIVGIQKSGKGSMSLQDIDQAENTARSTAVKLLEELKKHLGI | soluble
17 | MGSDKIHHHHHHMLLAPEDKLNERRAEYPGIEVHPLKFCSSELQAGHWKFLMGAIGNQAAYIRQLGNIMRKNRNNLSIQAIRDGIQNSSLSDSLKDLADMRLDFAEQYIDDQLNVGSLIRPGRMIVVDVRDEFIEKDEALGLFVVLLQIFSEAKYQGQSFNKLIVFDECHKYIDSPDLVKGLVETVREMRHKGTSVMIASQDPPSVPIELIQLSSQIILHKFNAPDWLKHIQKACIGLKSLTPEKLGALKPGEAFIWSSKASDNAFVSDAMKIQCRPRVTKHGGDTLTAI | not soluble
18 | MAHHHHHHMTNVVECTFKTPPETAKAPDNAIIWNSFQYCDEKGWYSLTNHDEIMLRPTAFSDGRIKFLPQLEKIPEEFESVLCGKYDAKAWGKDDCNIVIEGDKDVHISLPGLQEKINYNHRERFPTFLKNWKIIVGMLNEHITVIRINTETAIIVSINEKSNVTVKCVNFNNGFLCVNPHTNLAIAYGDFALSELKKCELVPNITHEGAEWGFFVHLFKWGHIIIPKDIEIKLPSPGLKLIGKKIDTVAIISLPPNIYIHVKIDGPKCIRKLEYGQDYSITAIKSSESDIDIYLLFDGQLIKYEFSFDTRLNKVGKGRSINYAKLKCTNKSKEVTSFVFQATANSKLLLDSNCPTDNMGHLLCNQTISVFDAETGEYLSHPQGLQLTEVFNTLSYPPEKE | not soluble
19 | MDSNSTTSFLSNGYNHKETLKLIEDMKNSASNKGILLYVNSPGGGVYESDELYLKLKEYKEETGRPVWTYMSNQACSGGYYISMASDKVFSNRNAWTGSIGVIISLTNLKGLYDNLGIKGIYITSGRNKAMGAADLELTDEQRDILQSLVDEAYEQFVEIVAEGRKMTVEEVKRIADGRILSAKQALELNLIDEIATYDEVKEAFQRRAWKC | not soluble
